This is an account of results in patent US20150359847A1, “METHOD AND COMPOSITION FOR CONFERRING NEUROPROTECTION” (BLOOD SYSTEMS RESEARCH INSTITUTE, priority 2014, published 2015).

Test [1] relates to mouse model of controlled cortical impact (CCI). The test can be described thus: Elevated Plus Maze in controlled cortical impact (CCI) TBI mice. Format: in vivo. An excerpt: The mouse controlled cortical impact (CCI) injury model was used as previously described. In brief, mice were anesthetized with 5% isoflurane and 1:1 O2:N2 mixture. Animals were mounted on a stereotaxic frame and were secured by ear bars and an incisor bar. Anesthesia was maintained with 2.0% isoflurane and 1:1 O2:N2 mixture. A 5-mm-diameter craniotomy was made midway between bregma and lambda on the right side, with the medial edge of the craniotomy 1 mm lateral to midline. Injury was produced using a magnetic impactor mounted at an angle of 110° from the vertical plane. A single impact at a velocity of 4+/−0.2 m/s was used inflict a moderate to severe injury (1.2-1.3 mm impact depth). After injury, the incision was closed. Sham animals underwent identical surgeries except for impact injury. Core body temperature was monitored using a rectal thermometer and maintained at 36.8° C.-37.2° C. with a heating pad throughout the procedure. […] Animal research was performed with approval of the Institutional Animal Care and Use Committee at ISIS Services LLC (San Carlos, Calif., USA). […]
The elevated plus maze was used to assess anxiety behavior in mice. […] The frequency of entries into the open and closed arms was recorded with an overhead camera using tracking software (Ethovision, Noldus Information Technology, Leesbury, Va.).

Test [2] deals with p-AKT(Ser473) in primary hippocampal neurons. The test can be described thus: Akt (Ser473) phosphorylation in primary hippocampal neurons (antibody array, western blot). The class given is cell-based, mouse. The settings on record: 1 μg/ml TIMP3, 15 mins. How it is done: SH-SY5Y cells were obtained from ATCC (Cat# CRL-2266, Manassas, Va.) and were cultured in DMEM and 10% FBS up to passage 10. For differentiation of SH-SY5Y cells into a neuronal phenotype, cells were first plated in DMEEM+10% FBS for 24 hrs before exchanging media in DMEM+1% FBS 10 μM retinoic acid. Differentiation was performed for 3 days before experimentation. Hippocampal neurons were prepared according to the protocol by Beaudoin et al. (Nature Protocols 2012; 7(9):1741-1754) with minor modifications. In brief, after trypsin digestion of hippocampi isolated from P1 mouse pups single cell suspensions was created by trituration and plated onto Biocoat™ poly-D-lysine coated 12-well plates (Cat#354470, BD Biosciences, San Jose, Calif.). […]
Pathscan Antibody™ array kits were purchased from Cell Signaling Technologies (Danvers, Mass.). PathScan® RTK signaling antibody array kit (Fluorescent Readout, Cat#7949) and PathScan™ Akt signaling antibody array kit (Fluorescent Readout, Cat#9700) were performed as per manufacturer's instructions. Imaging was performed on a LI-COR Odyssey™ infrared scanner and pixel densities measured by in house LI-COR Image™ suite software. […]
Lysates was analyzed in conjuncture with the LI-COR Odyssey™ infra-red imaging system. […] After further wash steps images were obtained using a LI-COR™ Odyssey scanner and quantified using LI-COR™ Image Studio software. […]
(In general: In western blotting, separated proteins are transferred to a membrane and probed.)

The test system of a further test is SH-SY5Y cells. As to the kind of experiment: Colorimetric neurite outgrowth assay. The class given is cell-based, human. The settings on record: 1 μg/ml TIMP3, 48 hrs. How it is done:
Neurite Outgrowth Assay Kit™ 3 μm (Cat# NS220) and AXIS™ Axon Isolation Devices, 150 μm, Plasma Bonded chamber slides (Cat# AX15005PB) were purchased from (EMD Millipore, Billerica, Mass.). For neurite outgrowth assays SH-SY5Y cells were initially differentiated for 24 hrs at a density of 4×10^5 cells per well of a 6-well plate. Cells were then dissociated using kit supplied dissociation buffer and 3×10^5 cells were replated onto transwell inserts. […] Assay was conducted per manufacturer's instructions.

B1: TIMP3: Recombinant tissue inhibitor of matrix metalloproteinase-3, a soluble protein released by MSCs, obtained from Amgen Inc. (protein)
chain: CTCSPSHPQDAFCNSDIVIRAKVVGKKLVKEGPFGTLVYTIKQMKMYRGFTKMPHVQYIHTEASESLCGLKLEVNKYQYLLTGRVYDGKMYTGLCNFVERWDQLTLSQRKGLNYRYHLGCNCKIKSCYYLPCFVTSKNECLWTDMLSNFGYPGYQSKHYACIRQKGGYCSWYRGWAPPDKSIINATDP
For the molecule B1, the “frequency of entries into the closed arms (Elevated Plus Maze)” value in test [1] (TBI+TIMP3 vs TBI alone, day 3) was “comparable frequency”. Moreover, in test [1] (TIMP3 60 μg/kg tail-vein at 1 hr, 24 hrs, 72 hrs post-TBI, EPM on day 3, vs TBI alone), the “frequency of entries into the open arms (Elevated Plus Maze)” value is listed as 11±1.8. For the same molecule, in test [2], the “p-AKT(Ser473), fluorescent antibody signaling array” value is given as “activates p-AKT(Ser^473)” and the “p-AKT(Ser473), western blot” value was “activates p-AKT(Ser^473)”. Also, the “neurite outgrowth (colorimetric)” value with SH-SY5Y cells was “promotes increased neurite outgrowth”.
